Source: US11098109B2, “Single-chain variable fragment anti-CD133 antibodies and uses thereof” (REGENTS OF THE UNIVERSITY OF MINNESOTA, priority 2010, dated 2021)
Entries after “also recorded” stand apart in the source; their conditions may differ.

T1: CD133 (Homo sapiens, UniProt O43490)
T1 construct: endogenous in cells
T1 sequence (O43490 20-865): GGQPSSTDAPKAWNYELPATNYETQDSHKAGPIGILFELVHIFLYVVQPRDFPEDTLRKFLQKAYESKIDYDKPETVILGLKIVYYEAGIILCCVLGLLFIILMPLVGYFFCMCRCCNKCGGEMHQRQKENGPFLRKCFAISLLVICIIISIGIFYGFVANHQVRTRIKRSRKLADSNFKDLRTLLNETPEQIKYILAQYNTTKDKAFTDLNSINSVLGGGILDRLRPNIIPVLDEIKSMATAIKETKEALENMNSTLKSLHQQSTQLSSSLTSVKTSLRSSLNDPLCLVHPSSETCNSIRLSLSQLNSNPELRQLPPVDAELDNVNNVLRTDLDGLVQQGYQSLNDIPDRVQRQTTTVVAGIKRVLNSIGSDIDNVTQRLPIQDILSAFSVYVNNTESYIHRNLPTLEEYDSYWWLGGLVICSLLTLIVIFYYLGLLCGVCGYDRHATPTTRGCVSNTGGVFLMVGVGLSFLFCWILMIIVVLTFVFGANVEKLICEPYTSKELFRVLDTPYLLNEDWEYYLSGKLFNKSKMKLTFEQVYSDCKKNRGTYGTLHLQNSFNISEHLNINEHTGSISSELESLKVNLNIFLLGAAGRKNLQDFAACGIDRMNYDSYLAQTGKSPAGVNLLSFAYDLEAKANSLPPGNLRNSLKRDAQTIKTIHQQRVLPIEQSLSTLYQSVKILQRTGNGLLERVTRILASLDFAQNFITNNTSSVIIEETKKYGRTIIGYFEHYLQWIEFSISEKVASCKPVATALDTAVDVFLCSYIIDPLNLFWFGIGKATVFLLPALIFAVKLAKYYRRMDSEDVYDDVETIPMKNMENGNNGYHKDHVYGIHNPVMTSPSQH


Columns and labels:
Assay type in all cases: binding
CD133 [1] = molecular target: T1, CD133; test: Flow cytometry of carcinoma lines with FITC-labeled anti-CD133 scFv
Experimental: We detected about 5% CD133 cells/95% CD133-cells in the various carcinomas that we examined. […] The anti-CD133 scFV was labeled with FITC and then standard flow cytometry was performed. The levels of CD133 expression (4-7.1%) are in agreement with values reported values. CaCo-2 colorectal carcinoma is a cell line known to express high levels of CD133+ cells so we included it as a positive control. Anti-CD45-FITC and anti-CD19 FITC are negative controls that preferentially recognize hematopoietic cells.
CD133 expression on UMSCC-11B cells on head and neck cancer cells. CD133 expression was measured on the UMSCC-11B cell line using flow cytometery. Cells were reacted with anti-CD133scFV-FITC for 30 minutes in the dark on ice. Cells were then washed 3× using saline and studied using a flow cytometer (FACScanto™ II, BD Biosciences, Franklin Lakes, N.J.). The blank (untreated cells) was used to establish the gate of non-positive cell activity. CD133 was expressed on both head and neck cancer cell lines, NA and UMSC-11B, at 5.9% and 6% respectively (Table 13). The Caco-2 colorectal carcinoma was included as a positive control cell line since it known to overexpress CD133. Controls included cells reacted with anti-EpCam-FITC, anti-CD45-FITC, and anti-CD19-FITC. Expression of CD45 and CD19 is mostly restricted to normal malignant hematopoietic cells.

CD133 [2] = molecular target: T1, CD133; test: Flow cytometry of FITC-labeled CD133scFv on CD133-transfected HEK293-TLR2 cells; conditions: CD133-transfected vs control HEK293-TLR2 cells; listed as CD133scFv
Experimental: FIG. 4: CD133scFV recognizes the CD133 marker. The CD133scFv was labeled with FITC. An oligonucleotide was prepared from the known GenBank sequence of CD133 and then transfected into HEK293-TLR2 cells using a polyethylenimine (PEI)-DNA complex. The cells were incubated with anti-CD133scFv-FITC complex, washed, and then analyzed by flow cytometry. Data are represented in standard histogram format whereby % positive cells are plotted against fluorescence intensity. […] Controls include transfected cells reacted with empty vector, transfected cells reacted with an isotype control, or untransfected cells that are not reacted with CD133-FITC.
Ult-Luc or CMV-CD133 pDNA constructs were transfected into HEK293-TLR2 cells using JetPEI transfection reagent according to the manufacturer's instructions (Polyplus Transfection). Briefly, 7.5×10^5 cells/well were seeded in a 6-well plate. Twelve hours later, 2.5 μg of each pDNA were diluted in 5 μl 5% dextrose and mixed with 0.35 μL JetPEI also in 5 μl 5% dextrose. Following incubation for 15 minutes, the transfection mix was added to the cells. […]
CD133scFv was labeled with FITC at a FITC:scFv ratio of 24:1 (Invitrogen, Carlsbad, Calif.) and dialyzed to remove any free unbound FITC. […] Data are represented in standard histogram format whereby % positive cells are plotted against fluorescence intensity. […]

CD133 [3] = molecular target: T1, CD133; test: Immunohistochemistry of human glioma and kidney tissue sections
Experimental: 5 μm paraffin sections of human kidney or glioblastoma tissue were mounted onto charged slides. The sections were deparaffinized and rehydrated using standard methods, rinsed in running tap-water and placed in a PBS bath for five minutes. The slides were then incubated in a pre-heated steamer bath with staining dish containing EDTA buffer (pH 8.0) for 30 minutes and then cooled for 20 minutes. The slides were washed with PBS (pH 7.4) for minimum of five minutes and then subjected to following incubation steps: blocking with serum-free background Sniper (Biocare Medical. Concord, Calif.), primary antibody at a 1:200 dilution of hybridoma supernatant at 4° C. overnight, Leica Bond post primary. Leica Bond polymer, and DAB chromagen developer. The sections were rinsed well, counterstained with hematoxylin, dehydrated, sealed with a cover slip and imaged.

Row | Molecule | % Positive Cells, CD133+ (CD133 [1]; BT474, breast) | % Positive Cells, CD133+ (CD133 [1]; Caco-2, colon, positive control line, listed as anti-CD133 scFV) | % Positive Cells, CD133+ (CD133 [1]; Caco-2, colon, positive control line, listed as anti-CD133scFV-FITC) | % Positive Cells, CD133+ (CD133 [1]; MDA-MB231, breast) | % Positive Cells, CD133+ (CD133 [1]; MDA-MD468, breast) | % Positive Cells, CD133+ (CD133 [1]; MiaPaCa-2, pancreas) | % Positive Cells, CD133+ (CD133 [1]; NA, head & neck) | % Positive Cells, CD133+ (CD133 [1]; SKBR3, breast) | % Positive Cells, CD133+ (CD133 [1]; UMSCC-11B, head & neck, listed as anti-CD133 scFV) | % Positive Cells, CD133+ (CD133 [1]; UMSCC-11B, head & neck, listed as anti-CD133scFV-FITC) | levels of CD133 expression (CD133 [1]; various carcinoma lines of Table 1) | reaction of FITC-labeled scFv with cells (CD133 [2]) | immunohistochemical staining (CD133 [3])
1 | No. 11 scFv: soluble scFv of the Hybridoma Clone 7 antibody expressed in E. coli Top10F', SEQ ID NO:58; also used FITC-labeled (protein, optionally FITC-labeled; scFv polypeptide) scFv: MDIVLSQSPAIMSASPGEKVTISCSASSSVSYMYWYQQKPGSSPKPWIYRTSNLASGVPARFSGSGSGTSYSLTISSMEAEDAATYYCQQYHSYPPTFGAGTKLELKSSGGGGSGGGGGGSSRSSLEVKLVESGPELKKPGETVKISCKASGYTFTDYSMHWVNQAPGKGLKWMGWINTETGEPSYADDFKGRFAFSLETSASTAYLQINNLKNEDTATYFCATDYGDYFDYWGQGTTLTVSS | 4.0% | 62.8% | 80.0% | 4.0% | 5.2% | 7.1% | 5.9% | 4.2% | 6.0% | 6% | 4-7.1% | Only the CD133-transfected cells reacted; also recorded: Only the CD133 transfected cells reacted | –
2 | Hybridoma Clone 7: monoclonal antibody produced by Hybridoma Clone 7 that specifically binds to human CD133 (antibody, V domains shown) VL: DIVLSQSPAIMSASPGEKVTISCSASSSVSYMYWYQQKPGSSPKPWIYRTSNLASGVPARFSGSGSGTSYSLTISSMEAEDAATYYCQQYHSYPPTFGAGTKLELK VH: LEVKLVESGPELKKPGETVKISCKASGYTFTDYSMHWVNQAPGKGLKWMGWINTETGEPSYADDFKGRFAFSLETSASTAYLQINNLKNEDTATYFCATDYGDYFDYWGQGTTLTVSS | – | – | – | – | – | – | – | – | – | – | – | – | membrane-specific staining
